Patent US8450464 (Bristol-Myers Squibb, dated 2013)

Assays:
human CXCR4 [1] = molecular target: T1, human CXCR4 (human, UniProt P61073 1-352); assay: competition flow cytometry on CEM cells: unlabeled antibody titrated against a constant concentration of FITC-labeled F9, fluorescent geometric mean; unit from the axis 'Ab Concentration in nM'
human CXCR4 [2] = molecular target: T1, human CXCR4; assay: radioligand competition on CEM cells; competitor 100 pM 125I-SDF-1
Method: The anti-CXCR4 antibodies were serially diluted 1:3 to yield a range of concentrations from 300 nM to 137 pM. […] An irrelevant antibody of the same isotype was used as a negative control.

human CXCR4 [3] = molecular target: T1, human CXCR4; assay: cell-based or functional assay
human CXCR4 [4] = molecular target: T1, human CXCR4; assay: flow cytometry on CEM cells, FITC anti-human IgG detection
Method: (§1) The antibodies were then mixed with CEM cells and allowed to bind before being detected with a FITC-conjugated anti-human IgG secondary antibody. The cells were then analyzed by fluorescent cytometry.

human CXCR4 [5] = molecular target: T1, human CXCR4; assay: flow cytometry titration on CEM cells (native human CXCR4), FITC anti-human IgG secondary, MFI; unit from the axis 'Conc in nM'
Method: as §1

human CXCR4 [6] = molecular target: T1, human CXCR4; assay: competition flow cytometry on CEM cells: unlabeled antibody titrated against a constant concentration of FITC-labeled F9, fluorescent geometric mean; unit from the axis 'Ab Concentration in nM'; the fitted value lies above the highest concentration shown (about 300 nM), inhibition is only partial
Method: To determine the ability of a panel of anti-CXCR4 antibodies to compete for binding to CXCR4, competition studies were performed. […] The mixture of antibodies was then added to CEM cells and allowed to bind.

human CXCR4 [7] = molecular target: T1, human CXCR4; assay: flow cytometry titration on CEM cells (native human CXCR4), FITC anti-human IgG secondary, MFI; unit from the axis 'Conc in nM'; the curve is still rising at the highest concentration, no upper plateau
Method: as §1

T1 sequence (P61073 whole entry): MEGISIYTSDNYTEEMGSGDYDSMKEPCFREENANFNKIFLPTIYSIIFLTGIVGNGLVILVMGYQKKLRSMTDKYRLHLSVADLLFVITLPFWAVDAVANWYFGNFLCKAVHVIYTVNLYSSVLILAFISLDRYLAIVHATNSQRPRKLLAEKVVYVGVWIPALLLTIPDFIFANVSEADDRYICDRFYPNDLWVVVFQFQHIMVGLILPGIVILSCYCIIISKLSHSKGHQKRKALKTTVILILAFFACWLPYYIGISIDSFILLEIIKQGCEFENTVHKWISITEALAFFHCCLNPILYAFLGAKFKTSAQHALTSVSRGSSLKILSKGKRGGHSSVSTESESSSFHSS

Molecule | EC50 (human CXCR4 [1]) | EC50 (human CXCR4 [2]) | EC50 for inhibition of SDF-1-induced calcium flux in CEM cells (human CXCR4 [3]) | EC50 (human CXCR4 [4]) | EC50 (human CXCR4 [5]) | EC50 (human CXCR4 [6]) | EC50 (human CXCR4 [7])
murine monoclonal anti-CXCR4 antibody 12G5 | 102 nM | – | – | – | – | – | –
anti-CXCR4 human monoclonal antibody D1 (antibody, V domains shown, Tested as full-length antibody) VH: EVQLVQSGGGLVQPGGSLRLSCAAAGFTFSSYSMNWVRQAPGKGLEWVSYISSRSKTIYYADSVKGRFTISRDNARNSLYLQMNSLRDEDTAVYYCARDYGGQPPYYYYYGMDVWGQGTTVTVSS VL: VIWVTQSPSSLSASVGDRVTITCRTSQGISSWLAWYQQKPEKAPELLIYAASSLQSGVPSRFSGSGSGTDFTLTISSLQPEDFATYYCQQYNSYPRTFGQGTKVEIK | 59.2 nM | 28.6 nM | 0.57 nM | 80 nM | 79.9 nM | – | –
anti-CXCR4 human monoclonal antibody E2 (antibody, V domains shown, Tested as full-length antibody) VH: EVQLVQSGGGLVQPGGSLRLSCAAAGFTFSSYSMNWVRQAPGKGLEWVSYISSRSRTIYYADSVKGRFTISRDNAKNSLYLQMNSLRDEDTAVYYCARDYGGQPPYHYYYGMDVWGQGTTVTVSS VL: EIVLTQSPSSLSASVGDRVTITCRASQGISNWLAWYQQKPEKAPKSLIYAASSLQSGVPSRFSGSGSGTDFTLTISSLQPEDFATYYCQQYNSYPRTFGQGTKVEIK | – | – | – | 290 nM | – | 469 nM | 290 nM
